{"source": "paper PMC8079166", "about": "(Biochemical Journal, 2021)", "binders": {"B1": {"name": "HIV-1 LAI Nef WLΔN (residues 56–205) (domain or fragment)", "chain": "AWLEAQEEEEVGFPVTPQVPLRPMTYKAAVDLSHFLKEKGGLEGLIHSQRRQDILDLWIYHTQGYFPDWQNYTPGPGVRYPLTFGWCYKLVPVEPDKVEEANKGENTSLLHPVSLHGMDDPEREVLEWRFDSRLAFHHVARELHPEYFKN"}, "B2": {"name": "HIV-1 LAI Nef ΔNΔL (residues 60–158;174–205) (domain or fragment)", "chain": "AQEEEEVGFPVTPQVPLRPMTYKAAVDLSHFLKEKGGLEGLIHSQRRQDILDLWIYHTQGYFPDWQNYTPGPGVRYPLTFGWCYKLVPVEPDKVEEANKDDPEREVLEWRFDSRLAFHHVARELHPEYFKN"}}, "key": {"[1]": {"molecular_target": "p85 subunit of PI3 kinase, nSH2–iSH2–cSH2 fragment (UniProt P27986 322-724)", "test": "MST"}, "[2]": {"molecular_target": "HIV-1 LAI Nef, full-length (HIV-1, LAI isolate, UniProt P03406)", "test": "ITC"}, "[3]": {"molecular_target": "B2", "test": "ITC"}, "[4]": {"molecular_target": "HIV-1 SF2 Nef, full-length (HIV-1, SF2 isolate, UniProt P03407)", "test": "ITC"}, "[5]": {"molecular_target": "B1", "test": "ITC"}, "[6]": {"molecular_target": "T1, HIV-1 LAI Nef ΔN (residues 60–205) (HIV-1, LAI isolate, UniProt P03406 60-205)", "test": "ITC"}, "[7]": {"molecular_target": "B2", "test": "MST"}, "[8]": {"molecular_target": "B1", "test": "MST"}, "[9]": {"molecular_target": "T1, HIV-1 LAI Nef ΔN (residues 60–205)", "test": "MST"}}}
{"binder": "Full-length LAI Nef preincubated with 50 µM FynR96 SH3 (complex, RED-NHS dye label) chain 1: […] chain 2: not shown", "values": [{"measurement": "Kd", "setting": "[1]", "value": "141 ± 14", "unit": "µM"}]}
{"binder": "Full-length LAI Nef preincubated with 50 µM Fyn_(R96I) SH3 (complex, RED-NHS dye label) chain 1: […] chain 2: not shown", "values": [{"measurement": "Kd", "setting": "[1]", "value": "135 ± 10", "unit": "µM"}]}
{"binder": "Fyn SH3 domain R96W (domain or fragment) not shown", "values": [{"measurement": "Kd", "setting": "[2]", "value": 1.43, "unit": "µM"}, {"measurement": "dH", "setting": "[2]", "value": -12, "unit": "kcal/mol"}, {"measurement": "stoichiometry N", "setting": "[2]", "value": 0.96}, {"measurement": "Kd", "setting": "[3]", "value": 0.78, "unit": "µM"}, {"measurement": "dH", "setting": "[3]", "value": -11.2, "unit": "kcal/mol"}, {"measurement": "stoichiometry N", "setting": "[3]", "value": 0.98}, {"measurement": "Kd", "setting": "[4]", "value": 0.12, "unit": "µM"}, {"measurement": "dH", "setting": "[4]", "value": -13.5, "unit": "kcal/mol"}, {"measurement": "stoichiometry N", "setting": "[4]", "value": 0.91}, {"measurement": "Kd", "setting": "[5]", "value": 1.45, "unit": "µM"}, {"measurement": "dH", "setting": "[5]", "value": -7, "unit": "kcal/mol"}, {"measurement": "stoichiometry N", "setting": "[5]", "value": 0.94}, {"measurement": "Kd", "setting": "[6]", "value": 1.28, "unit": "µM"}, {"measurement": "dH", "setting": "[6]", "value": -13.5, "unit": "kcal/mol"}, {"measurement": "stoichiometry N", "setting": "[6]", "value": 0.9}]}
{"binder": "Fyn SH3 domain, wild type (FynR96) (domain or fragment) not shown", "values": [{"measurement": "Kd", "setting": "[2]", "value": 58.5, "unit": "µM"}, {"measurement": "dH", "setting": "[2]", "value": -11, "unit": "kcal/mol"}, {"measurement": "Kd", "setting": "[3]", "value": 24.3, "unit": "µM"}, {"measurement": "dH", "setting": "[3]", "value": -3.35, "unit": "kcal/mol"}, {"measurement": "Kd", "setting": "[4]", "value": 28.7, "unit": "µM"}, {"measurement": "dH", "setting": "[4]", "value": -14.1, "unit": "kcal/mol"}, {"measurement": "Kd", "setting": "[5]", "value": 50.8, "unit": "µM"}, {"measurement": "dH", "setting": "[5]", "value": -3.39, "unit": "kcal/mol"}, {"measurement": "Kd", "setting": "[6]", "value": 83.3, "unit": "µM"}, {"measurement": "dH", "setting": "[6]", "value": -8.2, "unit": "kcal/mol"}]}
{"binder": "Full-length LAI Nef preincubated with 50 µM Fyn_(R96W) SH3 (complex, RED-NHS dye label) chain 1: […] chain 2: not shown", "values": [{"measurement": "Kd", "setting": "[1]", "value": "161 ± 17", "unit": "µM"}]}
{"binder": "B1", "values": [{"measurement": "Kd", "setting": "[1]", "value": "72 ± 8", "unit": "µM"}]}
{"binder": "Nef WLΔN preincubated with 50 µM FynR96 SH3 (complex, RED-NHS dye label) chain 1: AWLEAQEEEEVGFPVTPQVPLRPMTYKAAVDLSHFLKEKGGLEGLIHSQRRQDILDLWIYHTQGYFPDWQNYTPGPGVRYPLTFGWCYKLVPVEPDKVEEANKGENTSLLHPVSLHGMDDPEREVLEWRFDSRLAFHHVARELHPEYFKN chain 2: not shown", "values": [{"measurement": "Kd", "setting": "[1]", "value": "104 ± 11", "unit": "µM"}]}
{"binder": "Nef WLΔN preincubated with 50 µM Fyn_(R96W) SH3 (complex, RED-NHS dye label) chain 1: AWLEAQEEEEVGFPVTPQVPLRPMTYKAAVDLSHFLKEKGGLEGLIHSQRRQDILDLWIYHTQGYFPDWQNYTPGPGVRYPLTFGWCYKLVPVEPDKVEEANKGENTSLLHPVSLHGMDDPEREVLEWRFDSRLAFHHVARELHPEYFKN chain 2: not shown", "values": [{"measurement": "Kd", "setting": "[1]", "value": "108 ± 14", "unit": "µM"}]}
{"binder": "Nef WLΔN preincubated with 50 µM Fyn_(R96I) SH3 (complex, RED-NHS dye label) chain 1: AWLEAQEEEEVGFPVTPQVPLRPMTYKAAVDLSHFLKEKGGLEGLIHSQRRQDILDLWIYHTQGYFPDWQNYTPGPGVRYPLTFGWCYKLVPVEPDKVEEANKGENTSLLHPVSLHGMDDPEREVLEWRFDSRLAFHHVARELHPEYFKN chain 2: not shown", "values": [{"measurement": "Kd", "setting": "[1]", "value": "107 ± 12", "unit": "µM"}]}
{"binder": "Fyn SH3 domain R96I (domain or fragment) not shown", "values": [{"measurement": "Kd", "setting": "[7]", "value": "24 ± 8", "unit": "µM"}, {"measurement": "Kd", "setting": "[2]", "value": 0.79, "unit": "µM"}, {"measurement": "dH", "setting": "[2]", "value": -9.73, "unit": "kcal/mol"}, {"measurement": "stoichiometry N", "setting": "[2]", "value": 0.93}, {"measurement": "Kd", "setting": "[3]", "value": 3.86, "unit": "µM"}, {"measurement": "dH", "setting": "[3]", "value": -8.13, "unit": "kcal/mol"}, {"measurement": "stoichiometry N", "setting": "[3]", "value": 0.97}, {"measurement": "Kd", "setting": "[4]", "value": 0.02, "unit": "µM"}, {"measurement": "dH", "setting": "[4]", "value": -18.5, "unit": "kcal/mol"}, {"measurement": "stoichiometry N", "setting": "[4]", "value": 0.98}, {"measurement": "Kd", "setting": "[5]", "value": 7.55, "unit": "µM"}, {"measurement": "dH", "setting": "[5]", "value": -5.14, "unit": "kcal/mol"}, {"measurement": "stoichiometry N", "setting": "[5]", "value": 1.01}, {"measurement": "Kd", "setting": "[6]", "value": 5.06, "unit": "µM"}, {"measurement": "dH", "setting": "[6]", "value": -9.49, "unit": "kcal/mol"}, {"measurement": "stoichiometry N", "setting": "[6]", "value": 0.87}]}
{"binder": "B2", "values": [{"measurement": "Kd", "setting": "[1]", "value": "53 ± 3", "unit": "µM"}]}
{"binder": "Nef ΔNΔL preincubated with 50 µM FynR96 SH3 (complex, RED-NHS dye label) chain 1: AQEEEEVGFPVTPQVPLRPMTYKAAVDLSHFLKEKGGLEGLIHSQRRQDILDLWIYHTQGYFPDWQNYTPGPGVRYPLTFGWCYKLVPVEPDKVEEANKDDPEREVLEWRFDSRLAFHHVARELHPEYFKN chain 2: not shown", "values": [{"measurement": "Kd", "setting": "[1]", "value": "47 ± 8", "unit": "µM"}]}
{"binder": "Nef ΔNΔL preincubated with 50 µM Fyn_(R96W) SH3 (complex, RED-NHS dye label) chain 1: AQEEEEVGFPVTPQVPLRPMTYKAAVDLSHFLKEKGGLEGLIHSQRRQDILDLWIYHTQGYFPDWQNYTPGPGVRYPLTFGWCYKLVPVEPDKVEEANKDDPEREVLEWRFDSRLAFHHVARELHPEYFKN chain 2: not shown", "values": [{"measurement": "Kd", "setting": "[1]", "value": "79 ± 16", "unit": "µM"}]}
{"binder": "Nef ΔNΔL preincubated with 50 µM Fyn_(R96I) SH3 (complex, RED-NHS dye label) chain 1: AQEEEEVGFPVTPQVPLRPMTYKAAVDLSHFLKEKGGLEGLIHSQRRQDILDLWIYHTQGYFPDWQNYTPGPGVRYPLTFGWCYKLVPVEPDKVEEANKDDPEREVLEWRFDSRLAFHHVARELHPEYFKN chain 2: not shown", "values": [{"measurement": "Kd", "setting": "[1]", "value": "96 ± 18", "unit": "µM"}]}
{"binder": "SSVVGWPTVRERMRRAEPA", "note": "[Nef fragment containing H1 (residues 8–26)]", "values": [{"measurement": "Kd", "setting": "[7]", "value": "303 ± 50", "unit": "µM"}, {"measurement": "Kd", "setting": "[8]", "value": "1350 ± 219", "unit": "µM"}, {"measurement": "Kd", "setting": "[9]", "value": "699 ± 252", "unit": "µM"}]}
